Measured values: the supplement of paper PMC9732359
± gives the uncertainty stated by the source.

Assay: protein stability index of a GFP-peptide fusion (yeast GPS) (PSI 1-4); higher = more stable; sorted into four equal gates, so the index is relative within each strain
Outline: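 Tiled 17-residue peptides from yeast proteins were fused downstream of GFP on a plasmid that also expresses Cherry, and the pooled library was carried in yeast. Mid-log cultures grown in leucine-free medium were sorted into four equal gates by GFP/Cherry fluorescence ratio. Plasmids from each gate were PCR-amplified and Illumina-sequenced, and reads were assigned to strains by barcodes. Each peptide's protein stability index is the sum, over gates, of the gate's read frequency multiplied by its gate number.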

Sequence	protein stability index (doa10∆)	protein stability index (pdr5∆)	protein stability index (san1∆)	protein stability index (ubr1∆)
SLVKYPELLDSLAILGM [SWI1]	1.89 ± 0.06	2.31 ± 0.054	1.99 ± 0.075	2.16 ± 0.051
IDNYITNSVRLFEVNPS [SRP21]	2.61 ± 0.1	2.78 ± 0.088	2.54 ± 0.091	2.28 ± 0.12
VNADDDDFMHSETREKE [RPB4]	2.7 ± 0.089	2.61 ± 0.06	2.35 ± 0.089	1.99 ± 0.062
PDENHDNTSHDEQDDDN [BRN1]	3.11 ± 0.1	3.2 ± 0.095	3.05 ± 0.12	3.11 ± 0.1
ALLTVLKALSHHYNPKT [BRR2]	2.28 ± 0.07	2.25 ± 0.051	1.91 ± 0.081	2.41 ± 0.062
ISTSDVTRIINSSEIQS [RPL4A]	2.39 ± 0.04	2.64 ± 0.054	2.34 ± 0.071	2.58 ± 0.043
NQMKVAPIPKQLLQRIP [GAL11]	2.28 ± 0.07	2.54 ± 0.062	2.52 ± 0.054	2.3 ± 0.043
NELPDIEALYDDDTFSD [RPN2]	3.12 ± 0.1	3.35 ± 0.13	3.23 ± 0.12	2.98 ± 0.081
AVEFESVPLRKGDRALL [BRR2]	3.16 ± 0.29	3.45 ± 0.14	2.98 ± 0.075	2.87 ± 0.11
VNADTVGKTVKQLIMES [NSL1]	3.22 ± 0.077	3.13 ± 0.055	2.94 ± 0.058	3.33 ± 0.05
IVLSDQTQEFFLSSFDD [YJL039C/NUP192]	2.91 ± 0.12	2.89 ± 0.093	2.92 ± 0.057	3.25 ± 0.13
YNIDANVIDTQRKNGVT [ECM29]	2.75 ± 0.25	3.14 ± 0.092	3.26 ± 0.12	–
LARASGNYVIIIGHNPD [RPL2A]	2.8 ± 0.087	2.89 ± 0.089	2.85 ± 0.096	2.68 ± 0.097
KDLVEIKKEEGKIDEAA [RPN5]	–	–	–	3.62 ± 0.22
TLGNALRYVIMKNPDVE [RPC19]	2.93 ± 0.091	2.73 ± 0.059	2.46 ± 0.077	2.8 ± 0.055
IGGMRVDENGDPIWQHQ [RET1]	3.13 ± 0.2	3.38 ± 0.19	2.88 ± 0.26	3.42 ± 0.092
EDYELSPQAVSSFVRQE [PRE1]	2.29 ± 0.14	2.42 ± 0.15	2.31 ± 0.093	2.53 ± 0.083
FSAPIRPDIVHTVFTSV [RPL4A]	1.7 ± 0.056	2.07 ± 0.057	1.73 ± 0.094	2.16 ± 0.056
LNIGKNFAHSDSLSVPK [SIR4]	3.17 ± 0.085	3 ± 0.075	3.12 ± 0.042	3.2 ± 0.05
RYRLLSDVSDFEGWGHE [RPN1]	2.63 ± 0.12	3.35 ± 0.1	3.07 ± 0.09	2.83 ± 0.12
YPLPKFPTTSHESLVTT [MED8]	1.81 ± 0.056	1.92 ± 0.06	2.12 ± 0.08	1.72 ± 0.063
VEVCLADLQGSEDHSFR [RPS1A]	3.44 ± 0.18	3.27 ± 0.11	3.21 ± 0.17	3.25 ± 0.19
KIITSRPLQKIMLLQLE [SIN4]	2.12 ± 0.06	2.08 ± 0.052	2 ± 0.071	1.63 ± 0.044
NTMSAWVNMLLISSSGP [FAS2]	1.99 ± 0.07	1.32 ± 0.051	1.37 ± 0.1	1.52 ± 0.043
MLLANISVARKIYDAFP [DIS3]	1.69 ± 0.04	1.91 ± 0.041	2 ± 0.093	1.73 ± 0.041
MMVNNQTMQLIKNVQDL [SRB6]	2.84 ± 0.25	2.3 ± 0.16	1.64 ± 0.13	3.03 ± 0.17
TNLKMKRKWSYVLYAKI [RRP43]	1.71 ± 0.058	2.37 ± 0.042	1.75 ± 0.16	2.09 ± 0.15

Sequence	protein stability index (doa10∆)	protein stability index (pdr5∆)	protein stability index (san1∆)	protein stability index (ubr1∆)
AKKHKLNAITLDGDRAD [SMC3]	2.37 ± 0.21	2.66 ± 0.28	–	–
ENITNKVTEKVLTQLTA [CSI1]	2.62 ± 0.051	2.22 ± 0.037	2.4 ± 0.041	2.69 ± 0.041
YDNEKTAELIKELKEKE [PUP2]	3.27 ± 0.066	3.34 ± 0.087	3.44 ± 0.094	3.31 ± 0.064
SLVSTQSSSSTRSHEYG [REC8]	2.86 ± 0.08	3.04 ± 0.11	2.72 ± 0.057	3.19 ± 0.12
VRSLPKEEQPKQIIVTR [PRP8]	2.38 ± 0.1	2.09 ± 0.25	2.21 ± 0.12	1.98 ± 0.072
FETETEVTFKNANIFSS [FAS1]	3.15 ± 0.042	3.36 ± 0.055	3.35 ± 0.046	3.35 ± 0.037
LFQVESAPKISSEIDRE [SIR4]	2.35 ± 0.05	2.61 ± 0.062	2.37 ± 0.053	2.42 ± 0.045
VHPIPDVAFADGGKTLR [YMR129W/POM152]	2.5 ± 0.064	2.68 ± 0.086	2.66 ± 0.084	2.63 ± 0.051
IVMVWLKENTYVMERPK [YDL116W/NUP84]	1.46 ± 0.064	1.81 ± 0.06	1.43 ± 0.14	1.4 ± 0.056
GCDENDSTVNKSITLKG [YDL088C/ASM4]	3.1 ± 0.091	3.27 ± 0.068	3.32 ± 0.06	3.11 ± 0.066
ISKDCSAFACKTDEVII [BRR2]	2.99 ± 0.12	3.38 ± 0.082	3.44 ± 0.088	2.88 ± 0.073
ENVEKKEAALKTMIKTI [SMC2]	1.93 ± 0.058	2.29 ± 0.077	1.73 ± 0.09	2.14 ± 0.039
TEVIIRATRTQDVLGEN [RPS3]	3.42 ± 0.26	2.92 ± 0.12	3.14 ± 0.13	3.35 ± 0.079
QAPTTGFSFGSQLGGNK [YJL041W/NSP1]	3.02 ± 0.051	3.01 ± 0.054	3.37 ± 0.045	3.17 ± 0.036
QLGPQTPAFNTAILQRQ [ECM29]	1.39 ± 0.21	1.49 ± 0.17	1.41 ± 0.17	1.67 ± 0.21
TDQSTEEEKSVDASPND [CSL4]	2.88 ± 0.2	2.8 ± 0.21	–	3.06 ± 0.17
IIKYPVAFDNINTHIET [SNF2]	2.45 ± 0.14	2.71 ± 0.11	2 ± 0.16	1.85 ± 0.067
CKRELAFVKQKNDSLEK [YIL149C/MLP2]	3.26 ± 0.16	3.33 ± 0.17	–	3.43 ± 0.19
GNQQQQLQQQPQMQCAL [YGL172W/NUP49]	2.79 ± 0.17	2.66 ± 0.19	2.87 ± 0.1	–
PEQGEEPMKQLNATKIS [YAR002W/NUP60]	3.15 ± 0.12	2.2 ± 0.09	2.5 ± 0.14	2.48 ± 0.11
NITFSEELVSLAVFLFD [YJL039C/NUP192]	–	–	1.62 ± 0.28	1.66 ± 0.29
LEGEELAFYLRRLTAKK [RPS8A]	1.9 ± 0.068	1.75 ± 0.068	1.93 ± 0.1	3.05 ± 0.099
IQVLTEASSLGYLDDSE [IRR1]	1.3 ± 0.068	1.56 ± 0.057	1.76 ± 0.1	1.42 ± 0.055
KRVPNPNFLGNCNIKDF [SWP82]	2.05 ± 0.051	2.36 ± 0.04	2 ± 0.056	2.22 ± 0.032
ARAPKYASKAVPHYNRL [RPL25]	2.94 ± 0.078	3 ± 0.065	2.79 ± 0.052	2.98 ± 0.047
AHEIIKREEKAMTIYWD [CDC53]	2.03 ± 0.087	2.18 ± 0.064	–	2.2 ± 0.05
